Experimental data published in the supplement of paper PMC12042874.
± gives the uncertainty stated by the source.

Experiment: amyloid nucleation score (Sup35N fusion, yeast selection) (log enrichment); library NNK3; higher = more nucleation; inactive = no reads after selection
Outline: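 The nucleation score is a DiMSum log enrichment of output over input reads, centred on the mode score of non-aggregating sequences. Sequences under 100 input reads were excluded, and reads came from Illumina sequencing of plasmid inserts. Psi-negative yeast expressing Sup35N fused to peptides of 20 random codons were induced with 100 μM copper sulfate for 24 hours and grown 7 days at 30°C on medium lacking adenine and uracil. Random libraries had three technical output replicates.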

Substance	amyloid nucleation score
SKSNIRYSNTNGH	inactive
NGLPVLLEEDLS	inactive
RGMISVMPSVIGPAL	inactive
RIMWSRRVENVL	inactive
FWSPGYTIVTVTLNGLVPW	inactive
SESMCVIVSRIIWCGKVSNV	inactive
KNIPFYIGWVEVSTAGARYP	inactive
DVCLGWAQTAFRCLMRG	inactive
CFSNLGCTGWRT	-0.684 ± 1.2
WHTAKGTWSTGRQEDTGQSR	inactive
FSVFPLFVTGFQDILWVDLL	inactive
DTNGMMRAMLRYPIIRFLYA	-0.402 ± 0.63
CVLSSRF	inactive
CSISNVFSVVNVSSYSWGLY	0.373 ± 0.39
KQCGTIG	inactive
LKAYKFMSSNQHTRTAFLGD	inactive
YSAQFITSIGLGQKLFS	inactive
VHHLLELEQVHNKDGTF	inactive
HLSYKSQLS	inactive
RVHFALYSV	1.65 ± 0.062
GAIWERLDIREM	inactive
NIFNCDRGSFFLLYRGIGFY	inactive
LCISKKVMNFSNASHGGQQC	inactive
FKLVGDIYYQYVYALPRNKL	inactive

Substance	amyloid nucleation score
VIIIEWV	inactive
LIRCCFPHMSGVLFMKFTLT	inactive
AYADHHYRAGLRFPAGEVYW	inactive
FIHMCISFSGYFYDYCFNFN	inactive
GKKLDMYHIRHSRW	inactive
YPYCKKGWCDMKTKGRSKEG	inactive
NFLVVSNRYLYMVPNGHIKL	2.96 ± 0.051
REMKWRLELLVGGKYRYHQL	inactive
DLQFGVGVTASPAAYCRYLS	inactive
RSRAFGDGKNWMHCRRYVM	inactive
YRSRLYNCFFGQFYMSLTNM	2.07 ± 0.064
VKISPNAWALQLR	inactive
PISLCSWATRFCSYFDKHKL	inactive
DFGFWLVDVGWGPLLRYVAD	inactive
WVQVRRVKIE	inactive
DRVDIRATADELGLR	inactive
GMFDCMIELYISGPDLGQGS	inactive
CVSIGVVMCFCKSRFAITFV	inactive
LYNFRECTQTSFISFVCQLV	inactive
CCVDPLAELLICMTALIASR	inactive
PTLILWDFCCLVLVEAFYGC	inactive
SSFQSYYTSSDMTEF	inactive
YFLGECNPRCYLLRGLAAWN	inactive
NVAGM	inactive

Substance	amyloid nucleation score
LYDSIVHESKRLLATDRIRF	inactive
SLSNSVWINFARNGLSSLCQ	inactive
PWDDYTAQIGLYSFPPWLYV	inactive
NELCLVMIKKDVSMRVWLES	inactive
TEHKVSFPHFVKYKPSLSSY	inactive
FMYMMFERQLPMWDNELLH	-0.251 ± 0.66
VDFYAQ	inactive
TYSNMCVSDVLCLTLT	2.38 ± 0.048
RNPDLVVKSQGVNRWGDSRC	inactive
FPARLYGYMFLKNSTLRFSR	inactive
VGFPPSSTSRCR	inactive
GQNSRPGLANTLLYPEVLIR	inactive
VSRHKFFRHSCAN	inactive
QILVLHIR	1.71 ± 0.079
TWQVFSASVTVSLSYTSK	inactive
HWTNHYNYCGRA	1.19 ± 0.082
VYSMEPECIW	inactive
LCLCVRFFKAFNRFNYRRFF	inactive
LVQSTRGSRSNTWACNERFV	inactive
IERSDSVSWRGVLVGIEMKV	inactive
KDHLHRRYMGRTAVLREIDI	inactive
FSFITLMVTLSSVKIGEIWW	inactive
GITVMSLTG	inactive
TLLHLLKLSGLVSKCSTMVL	inactive

Substance	amyloid nucleation score
FMPHARASQQLPGGSHFLNL	inactive
YDGVNKLRSVCCVESSDFGL	inactive
QVFLSKVCMLFDVVARVVKR	inactive
YCETSLLCCCSIPWYLNCIE	inactive
HHTKILSSYISWVYILITNS	inactive
EVRPCNMLGLRNIGRGYREN	inactive
TSTDVQVGYVNMLLLRVLFF	inactive
RLYRRSCVSSR	inactive
SIQCSK	inactive
YCFVPRIMYMVCQYCVLTND	inactive
WVSSFTVAWKGGKQRVITVE	inactive
LCLVLWVSK	inactive
LSLCRT	0.001 ± 0.32
YELGIHWTYCWL	2.39 ± 0.064
SAYVLDGYMEISQILVIWSL	inactive
SFNITAWMMFMNVIQGYSI	2.38 ± 0.059
HSLVSLWYGSRCIILSR	inactive
SWTGCKYIQKYRCRRWCNNF	inactive
FINMKIKQTYMRVFFWICAV	inactive
RYSSNRLTLMWDCIEGGSAW	1.03 ± 0.14
SFMKQIFSYARLVRISKSVG	inactive
TGCGQFH	inactive
RSYFYTCDSLDALHVHLASH	inactive
FSGRYGTRLPLYSGRFKWFI	inactive

Substance	amyloid nucleation score
VLKSIGV	inactive
LRSVLSVGGEMAYINCNQLL	inactive
SWVTDWIL	inactive
PERWSMPYIPSDLYKCLLNQ	inactive
RSQDNCR	inactive
RWVICEFGR	inactive
GGSLGHSRLSKDVSVEESAW	inactive
NQQWISTRVVLKAPAFERRT	inactive
SPNNTTFSHYRFCLL	inactive
LVYREGYIWVMFLIYSFWTV	inactive
PVWFTYQHHCWVKLICV	inactive
DSCTDEENM	inactive
GDQFQAMHVWNLPDVDYYVH	inactive
YRCYVVVSCWIHLNIKWLMY	inactive
NISFFTHLVSYRPTVRSSD	1.24 ± 0.14
TFLLLYGIMDSNVPTVRHAL	0.846 ± 0.15
TFCFLQVN	inactive
CLLEHFK	inactive
FVCKMVMIRRGDTWKVSKVV	inactive
FVAADSPGVSSFKAN	inactive
ILQCGS	inactive
